This series is described as follows: yeast display, Sf9 membrane polyspecificity reagent, FACS + sequencing; frameworks hold sequencing errors. In a few lines:
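A nanobody's polyreactivity label depends on the gate it was sorted from. Yeast display cells were stained with 10% biotinylated, detergent-solubilized Sf9 membrane reagent for 1 hour at 4 °C, enriched on streptavidin microbeads and sorted by FACS. The low and high (top ~1%) gates were set on anti-HA fluorescence for expression and streptavidin fluorescence for reagent binding.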
On to “QVHLVESGGGLVQAGGSLRLSCAASGSTFYYTAMGWYRQPPGKESELVAAISRGGGSTYYADSVKGRFTISRDNAKNTVYVQMNSLKPEDTAVYYCAARRVGGGFYTWRNPAYEYWGQGTQVTVSS”, for which the “polyreactivity (PSR sort gate)” value is “high polyreactivity”. With “QVQLVESGGGLVQAGGSLRLSCAASGSTFNRYAMGWYRPAPGKEWELVAAISGSNGGTDYADSVKGRFTISRDNAKNTVYLQMNSLKPEDTAVYYCAKVRAYTRLGLTVSMDYWGQGTQVTVSS”, the “polyreactivity (PSR sort gate)” value is given as “high polyreactivity”. Consider “QVQLVESGGGLVHAGGSLRLSCAGSGSTFRPYAMGWYRQAPGKERELVAAIRKIGGRTYYADSVKGRFTISRDNAKNTVYLQMNSLKPEDTAVYNCNKRIGGGVHAYNYWGQGTQVSVSS”, for which the “polyreactivity (PSR sort gate)” value is “low polyreactivity”.

With “QVQLVESGGGLVQAGGTLRLSCAASGRTFNTYAMGWYRQAPGKERELVAAISSGGRTYYADSVKGRFTISRDNAMLTVYLQMNSLKPEDTAVYYCAAKRFQYRTLYEFWGLGTQVTVSS”, the “polyreactivity (PSR sort gate)” value was “high polyreactivity”. As to “QVQLVESGGGLVQAGGSLRLSCAASGIIFVYYAMGWYRQAPGKERELVAAISRSGGRTYYADSVKGRFTISRDNAKNTVYLQMNSLKPEDTAVYYCAAEVYKRYRYDYWGQGTQVTVSS”, the “polyreactivity (PSR sort gate)” value is given as “high polyreactivity”. Then “QVQLVESGGGLVQAGGSLRLSCAASGSTFVYNAMGWYRQAPGKERELVAAITVSDGSTYYADSVKGRFTISRDNAKNTVYLQMNSLKPEDTAVYYCNADFPRKTRYEYWGQGTQVTVSS”, with “low polyreactivity”. In the case of “QVQLVESGGGLVQAGGSLRLSCAASGRTFIHYAMGWSRQAPGKERELVAAISRRGGSTYYADSVKGRFTISRDNAKNTVYLQMNSLKPEDTAVYYCAARLLGITGRTDSGAEGDYWGQGTQVTVSS”, the “polyreactivity (PSR sort gate)” value was “high polyreactivity”. Regarding “QVQLVESGGGLVQAGGSLRLSCAASGSTFGGYAMGWYRQAPGKERELVAAISGSGVRTYYADSVKGRFTISRDNAKNTVYLQMNSLKPEDTAVYYCAKRVRYPGDRYYYWGQGTQVTVSS”, the “polyreactivity (PSR sort gate)” value was “high polyreactivity”. With “QVQLVESGGGLVQAGGSLRLSSAASGITFNLNDMGWSRQAPGKERELVAAITSGGNTSYADSVKGRFTISRDNAKNTVYLQMNSLKPEDTAVYYCPTEDFRTDTGMYYWGQGTQVTVSS”, the “polyreactivity (PSR sort gate)” value was “low polyreactivity”. As for “QVQLVESGGGLVQAGGSLRLSCAASGSTRYYAMGWYRQAPGKERELVATISSRSRTYYADSVKGRFTISRDNAKNTVYLQMNSLKPDDPAVYYCAARRRRFYYQYYRYDYWGQGTQVTVSS”, the “polyreactivity (PSR sort gate)” value is recorded as “high polyreactivity”. With “QIQLVESGGGLVQAGGSLRLSCAASGRTFYSYAMGWYRQAPGKERELVAAINRGASTYYADSVKGRFTISRDNAKNTVYFQMNSLKPEDTAVYYCNAQYYYIPSSTDYDYWGQGTQVTVSS”, the “polyreactivity (PSR sort gate)” value is on record as “high polyreactivity”. In the case of “QVQLVESGGGLVQAGGSLRLSCAASGFTFRGNAMGWYRQAPGKERELVAAITWNGGSTYYADSVKGRFTISRDNAKNTVYLQMNSLKPEDTAVYYCAAQYGKKRQPRFNYWGQGTQVTVSS”, the “polyreactivity (PSR sort gate)” value was “high polyreactivity”. As for “QVQLVESGGGLVQAGGSLRLSCAASGRTIVYYAMGWYRQAPGKERDFVAAISRSGGRTSYADSVKGRFTISRDNAKNTVYLQMNSLKPEDTAVYYCAAEKRTQPTSREYYWGQGTQVTVSS”, the “polyreactivity (PSR sort gate)” value is “high polyreactivity”. Turning to “QVQLVESGGGLVQAGGSLRLSCAASGSIFGSYTMGWYRQAPGKERELVAVINWSGDRTYYADSVKGRFTISRDNAKNNVYLHMNSLKPEDTAVYYCAARERAGYSGIRYNYWGQGSQVTVSS”, the “polyreactivity (PSR sort gate)” value is reported as “low polyreactivity”.

Turning to “QVQLVESGGGLVQAGGSLRLSCAASGSTFIGYAMGWYRQAPGKDRELVAAITRSGGRTYYADSVKGRFTISRDNAKNTVYLQMNSLKPEVSAVYYCAARVKGQWNTYDYWGQGTQVTVSS”, the “polyreactivity (PSR sort gate)” value is listed as “high polyreactivity”. As for “QVQLVESGGRLVQAGGILRLSCAASGIIFKDYAMGWYRQATGKERELVAAISWSGSSTYYADSVKGRFTISRDNAKNTVYLQMNSLKPEDTAVYYCNAFPGDYRYDYWGQGTQVTVSS”, the “polyreactivity (PSR sort gate)” value is given as “high polyreactivity”.

The values are drawn from the nanobody polyreactivity screen of Harvey et al. (2022).
